In the nanobody polyreactivity screen of Harvey et al. (2022):

Test: yeast display, Sf9 membrane polyspecificity reagent, FACS + sequencing; frameworks hold sequencing errors
Summary of the method: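 After 36–48 hours of galactose induction, yeast (Saccharomyces cerevisiae BJ5465) displaying a synthetic nanobody library were stained at 4 °C for 1 hour with 10% biotinylated, detergent-solubilized Sf9 membrane reagent. Streptavidin microbeads enriched the stained cells before FACS sorting into low and high (top ~1%) gates on anti-HA and streptavidin fluorescence. Each clone's polyreactivity label reflects its gate of origin.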

Sequence	polyreactivity (PSR sort gate)
QVQLQESGGGLVQGGGSLRLSCAASGSNYRSWYMGWYRQAPGKERELVASITEGATTNYAYSVKAALPLAAITRNTVYLQMDSMKPEDTAVYYRAASFGSTYDLVYWGQGTQVTVSS	high polyreactivity
QVQLQESGGGLVQVGGSQRLSCAASGNIFYNYAMGWYRHAQGKEREFDATINHGTSINYADSVKGRFTISRDNAKNTVYLQMNSLKPEDTAVYYCAARVVRYGYKYYYWGQGTQVTVSS	low polyreactivity
QVQLQESGGGLVRAGGSLRLSCAASGYISTSIAIGWYRQAPGKERELVASFGAGAITNYADSVKGFTISRDNGKKTVYLQMNSLKPVDTALYYCAVYHGDRGYYSYWGQGTQVTVSS	low polyreactivity
QVQLQESGGGLVRAGGSLRLSCAASGYISTSIAMGWYRQAPGKERELVASFGRGAITNYADSVKGFTISRDNGKNSVYLQMNSLKPEDTAVYYCAVYHGDRGYYSYWGQGTQVNVSS	low polyreactivity
QVQLQESGGGLVRAGGSLRMSCAASGNIFDADIMGWYRQAPGKERELVASITDGRRTNYADSVKGRYTISRDSEKNTVYLQMNSLKPEDTAVYYCAAIAYPVVPTYFDYDSDYFHWGQGTQVTVRS	high polyreactivity
QVQLQESGGGLVRAGGSLSLSCAASGTIFGQFYMGRYRQAPGKEREFVATINYGSSTNYADSVKGRYTISRDNAKNTVYLQMNSLKPEDTAVYYCNTDFFYYGYNFPYFDYDYWGQGSQVTVSS	low polyreactivity
QVQLQESGGGMVQAGGSLRLSCAASGYISWADYMGWYRQAPGKERELVAGIGYGSTTYYADSVKGRFTISRDNAKNTAYLQMNSLKPQYTAVYYCAVGWYRDTAYKYWGQGTQVTVSS	low polyreactivity
QVQLQESGGGMVQAGGSLRLSCAASGYISWADYMVWYRQAPGKERELVAGIGYGSTTYYADSVKGRFTISRDNAKNTAYLQMNSLKPEDTAVYYCAVGWYRDTAYKYWGQGTQVTVSS	low polyreactivity
QVQLQESGGGMVQAGVSLRLSCAASGTISNAPHMGWYRQAPAKERELVAGITIGGTTYYADSVKGRFTISRDNAKNTVYLQMNSLSPGVTAVYDCAAHSEQYTPFYYWGQGTQVTVSS	low polyreactivity
QVQLQESGGGPVLAGGSLRLSCAASGTIFVRLDMGWYRQAPGKEREFVATIGSGSSTYYADSVKGSFTISRDNVKNTVYLQMNSLKPEDTAVYYCAVSAAEQSRHYYWDQGTQVTVSS	low polyreactivity
QVQLQESGGGQVHAGGSLRLSCAASGTIFLYAFMGWYRQPPAKERELVAAIDVGTTTNYADSVKGRFTISRDNEKNTVYLQMNSLKPEDTAVYYCAANLGYLDDLGYWGQGTQVTVSS	low polyreactivity
QVQLQESGGGQVQAGGSLRLSCAASGYMSTHYFMGWYRQSPGKDREFVAGISNGSITNYADSVKGRFTISRDNARNTVYLQMNSLKPEYTAVYYGAAFEWTYVRFGYWGQGTQVTVSG	high polyreactivity
QVQLQESGGLVQAGGSLRLSCAASGSISGRNVMGWYRQAPGQEREFVASITDGSSTNYADSVKGRFTISRDNAKNTVYLQMNSLKPKDTAVYYCAAYAQRAKSFGYWGRGTQVTVSS	low polyreactivity
QVQLQESGGLVQAGVSLRLSCAASGSISGRNVMGWYLQAPVKQREFVASITDGSSSNYADSVKGRFTISRDNAKNTVYLQMNSLKPTDTAVYYCAAYGLRPKSFGNWGGGTQVTVSS	low polyreactivity
QVQLQESGGRLVQAGDSQRLSCASSGNIFRFTDMGWYRQAPGKERELVAAINAGSTTYYADSVKGRFTISRDNAKNTVYLQMNSLKPEDTAFYHCNDPPVYSSTRYGYWGQGTQVTVAS	high polyreactivity
QVQLQESGGVLVQAGGSLRLSCAASGYISWYSEMGWYRKAPCKEREFVATNTCGTTTNYAVSVKGRFTISRDNAKNTVYLQKNSLKPEDTAVYYCAVHDARHYEFDYWGQGTQVTVSS	high polyreactivity
QVQLQESGRGLVQAGGSLRLSCAASGTISQEDWMGWYRQAPGKEREFVAAIGLGSNTNYADSLKGRFTISRDNAKNTVYLQMNSLKPEDTAVYYCAVSVWQYSDHVYRGQGTQVTVSS	low polyreactivity
QVQLQESGSGLVQARGSLRLSCAASGAIFPAYLMGWYRHAPGKERELVAGISYGSITYCADSVKGRFNISRDNAKNTVYLQRNSLKPEDTAVYYCAVWRPGGDEYYYWGQGTQVTVSS	low polyreactivity
QVQLQESNGGLVQAGGCLRLSCAASGNIFDADIMGWFRKAPGIERELVASITDGGSTNYADSVKGRFTINRDNALNTVYLQMYSLKPEDTAVYYCAVSYKGWYQLGYWGQGTQVTVSS	high polyreactivity
QVQLQESVGGLVQAGGILRLSCAACGNIFPSAVMGWYRQALGKEREFVATINSGSNTYYADSVKGRFTISRDNATNTVYLQMNSLKLEDTAVYYCAAYFKLPAWHTYWGQGTQVTVSS	low polyreactivity
QVQLQESVGGLVQAGGSLRLSCAASGTIFWGDDMGWYRQAPGKERELVASINDGSITYYADSVKGRFTISRDNAKNTVYLQMNSLKPEDTAVYYCAVRIAVVKSYLIYNYWGQGTQVTVSS	high polyreactivity
QVQLQETGGGLVQAGGILGCAASGNISTRSEMGWYRQATGKEREFVATINSGGITNYADSVKGRFTISRDNAKNTVYLRMNSLKPEDTAVYYRAVYGYFSDPYDYWGQGTQVTVSS	low polyreactivity

Sequence	polyreactivity (PSR sort gate)
QVQLQGSGGGLVQAGGSLRLSCAASGNIFDADIMGWYRQAPGKESELVASITDGGSTNYADSVKGRFTISRDNAKNTVYLQMNSLKQEDTAVYYCAAIAYPDIPTYFDYDSACFYWSQGTQVTVSS	high polyreactivity
QVQLQGSGGGLVQAGGSLRLSCAASGNIFDADIMGWYRQAPGKESELVASITDGGSTNYADSVKGRFTISRDNAKNTVYLQMNSLKQVDTAVYYCAAIAYPDIPTYFDYDSDCFYWSQGTQVTVSS	high polyreactivity
QVQLQGSGGGLVQAGVSLRLSCAASGYIFQNVPMGWNRHAPGKERELVAGIDNATSTNYADSVNGRFTISLDNAKNTVYLQMNSLKPEDTAVYYCAAAGQADNTLGYWGQGTQVTVSS	low polyreactivity
QVQLQVSGGDLVQAGGSLRLSCEASGTIYGLTSMGWYRQAPGKEREFVAAITDGGNTNYADSVKGRFTISRDNAKNTVYLQMISLKPEDTGVYYCAVLFSDDAYYAYWGQGTQVTVSS	low polyreactivity
QVQLRESGGGLVQAGGSLSLSCAASGTIFYSRYMGWYRQAPGKEREFVASNSSGGNTNYADSVKGRFTISRDNAKNTVYLQMNSLKPEVSAVYYCEVNTGLITTFPYWGQGTQVTVSS	high polyreactivity
QVQLVASGGALVQAGGSLRLSCAASGRISTYTMGWYRQGPGKERELVATISTDASTNYADSVKGRFTISRDNAKNTVYLQMNSLKPEATAVYYCAAVIVNQDYDYWGQGTQLTVSS	low polyreactivity
QVQLVASGGGFVQAGGSLRVSCAASGGTILGNAMGWDRQAPGKERELVATITARVGSTYYADSVKGRFTISRDNAKNTVYLQMNSLKPEDTAVYYCAARKVWGYTYGYPYYYWGQGTQVTVSS	high polyreactivity
QVQLVASGGGIDQAGGSHRLSCAASGSIFPAYTMGWYRPAPGKERELVAAITRRGGSTYYADSVKGRFTISRDNAKNTVYLQMNSLKPEDSAVYYCAADGFNSDDTPSWYWGEYWGPGTQVTVSS	low polyreactivity
QVQLVASGGGLVHAGGSLRLSCAASGGTFWDYAMGWSRQAPGKERELVAVISDSGGTYYADSVKGRFTISRDNAKNTVYLQMNSLKPEDTAVYYCAAGSLTLSTSTVWFAYDYWGQGTQVTVSS	high polyreactivity
QVQLVASGGGLVQAGASLRLSCAASGFTFSLYGLGGYRQAPGKERELVAALRSGGSTNYADSVKGRFTISRDNAKNTVYLQLNSLKPEDTAVYYCATDIHSVLNNRVKHDYDYWGQGTQVTVSS	low polyreactivity
QVQLVASGGGLVQAGGSLRISCAASGRTITPYAMGWYRQAPGKERELVATISSGTSPNYADSVKGRFTISRDNAKNTVYLQMNSLIPEDTAVYYCAADGYTYKFDYWGQGTQVTVSS	low polyreactivity
QVQLVASGGGLVQAGGSLRLSCAASGFIFWYYAMGWYRQAPGKERELVATITSGGSTTYADSVKGRFTISRDNAKNTVYLQMYSLKPEDTAVYYCAAKGISRYDWGQGTQVTVSS	low polyreactivity
QVQLVASGGGLVQAGGSLRLSCAASGFTFYYYAMGWYRKAPGKERELVAGISGRGGTTYYADSVKGRFTISRDNAKNTFYLQLNSLKPEDTAVYDCAARKVRARSKFEYWGQGNQVTVSS	high polyreactivity
QVQLVASGGGLVQAGGSLRLSCAASGRTFKYNTMGWYRQAPGKERELVAVISRSGGRTYYADSVKGRFTISRDNAKNTVYLQMNSLKPEDTAVYYCAKGIPYADPQSAYDDYWGQGTQVTVSS	high polyreactivity
QVQLVASGGGLVQAGGSLRLSCAASGSIFIYYTMGWYRQAPGKERELVAAINRGGSTYYADSVKGRFTISRDNAKNTVYLQMNSLKPEDTAVYYCNARYYRLPYWDAVKYDYWGQGTQVTVSS	low polyreactivity
QVQLVASGGGLVQAGGSLRLSCAASGSIFTHNALGWSRQAPGNERALVAAISSGGSTNYADSVKGRFTISRDNAKNTVYLQMNSLKPEDTAVYYCAKSIDGWYWRRRRYDYWGQGTQVTVSS	low polyreactivity
QVQLVASGGGLVQEGGSLRLSCAASGSTFYVNAMGWYRPAAGKERELVAAISLSGGRTYYADSVKGRFTISRDNAKNPVYLQMNSLNQEDTAVYYCAARDSARYYWGQGTQVTVSS	high polyreactivity
QVQLVDAGGRLVQAGGSLRLSCAASGRIFAYYAMGWSRQAPGKDRELVSGISQRGSRTYYADSVKGRFTISRDNEKNTVYLQMNSLKPEDTAVYYCNTQRWGSGVGSLMDYWGQGTQVTVSS	high polyreactivity
QVQLVDSAGGLVQAGGSLRLICAASGYTQIKNAMGVSRHAPGKERELVAAISSGGSTKYADSVKGRFTISRDNAKNTVYLQMNSLKPEDTAVYYCAKGRVVPYRRYTRIHMYHWGLGTQVTVSS	high polyreactivity
QVQLVDSAGGLVQAGGSLRLSCDAYGSNFGVNAMGWYRQAPGKERELVAIITSTTYADSVKGRFTISRDNAKNTVYLQMNSLKREDTAVYYCAIDQERVTKGRFYLLEYDWGHGTQVTVSS	low polyreactivity
QVQLVDSAGGLVQAGGSLSLSCAASGITFVSKVMGWYRQAPGKEREFVAAITGRGDSTYADSVKGRFTNSRDNAKNCVYLQMNSLKPEDTAVYYCAAEYSVPYRGWDGYEYWGQGTQVTVSS	low polyreactivity
